# B1: PIV1-8 mAb (antibody, V domains shown)
# VH: QVQLVQSGAEVKKPGSSVKVSCEASGGTFSNYVISWVRQAPGQGLEWMGGIIPVFATAKYAQKFQGRVTIIADQSTNTAYLELSSLRSDDTAVYFCASVDSGGTWWDAFAIWGQGTMVTVSS
# VL: QAVVTQPRSVSGSPGQAVTISCTGTSSDVGGYNYVSWYQHHPGKAPKLIIYDVTKRPSGVPDRFSGSKSGNTASLTISGLQTEYEADYYCCSYAGSYTLVFGGGTKLTVLG
# notes: human IgG1; also called hPIV1-8 mAb; hPIV1-8
# B2: hMPV-2 mAb (antibody, V domains shown)
# VH: QVQLQQSGAEVKKPGASVKVSCKASGYTFTSYGISWVRQAPGQGLEWMGWISGYNGNTNYAQTFQGTFTMTTDTSTSTAYMELRRLRSGDTAVYYCARDRYYASGSYNGMDVWGQGTTVTVSS
# VL: QSALTQPPSASGAPGQRVTVSCSGSSSNVGSSSVYWYQQLPGTAPKLLIYRNNQRPSGVPDRFSGSKSGTSASLAISGLRSEDEADYYCAAWDDSLSGWVFGGGTKLTVLG
# notes: human IgG1
# How the values were obtained:
# Assay in all cases: BLI, no stress
# PIV1046 = target: T1, PIV1046 (PIV1)
# T1 construct: A466V, S473V
# Experimental: (§1) All measurements were conducted at 30° C. temperature in 96-well black plates (Corning, Corning, NY) with a final volume of 240 μL per well at a constant agitation rate of 1000 RPM.
# (§2) Conformation integrity of PIV1 F protein mutants were evaluated by a thermal stress experiment. Crude cell culture supernatants were normalized based on the results of the titer quantitation and then incubated for 1 hour at room temperature and two higher temperatures. For the initial testing of PIV1 mutants, the two temperatures were 50° C. and 53° C. […] Anti-Human IgG Fc Capture (AHC) biosensors were first equilibrated in PB for before being dipped into more PB to establish the initial baseline. […] The mAb-bound biosensors were then dipped into the thermal stresses cell culture supernatants for 5 minutes.
# PIV1044 = target: T2, PIV1044 (PIV1)
# T2 construct: Q92L
# Experimental: as §1, §2
# PIV1043 = target: T3, PIV1043 (PIV1)
# T3 construct: Q92A, G134A
# Experimental: as §1, §2
# PIV1042 = target: T4, PIV1042 (PIV1)
# T4 construct: Q92A
# Experimental: as §1, §2
# PIV1045 = target: T5, PIV1045 (PIV1)
# T5 construct: Q92L, G134A
# Experimental: as §1, §2
# hMPV101 = target: T6, hMPV101 (hMPV B, UniProt Q6WB98 19-102)
# T6 construct: A140C-S149C
# Experimental: as §1
# (§3) Conformation integrity of hMPV B F protein mutants were evaluated by a thermal stress experiment. Crude cell culture supernatants were normalized based on the results of the titer quantitation and then incubated for 1 hour at room temperature and two higher temperatures. For the testing of hMPV B single mutants, the two temperatures were 53° C. and 56° C. After the incubation, the protein mutants were probed with prefusion specific monoclonal antibody hMPV-2 by OCTET HTX. Anti-Human IgG Fc Capture (AHC) biosensors were first equilibrated in PB before being dipped into more PB for to establish the initial baseline. Biosensors were incubated with hMPV-2 before being equilibrated in PB to establish the experimental baseline. The mAb-bound biosensors were then dipped into the thermal stresses cell culture supernatants for 5 minutes.
# hMPV104 = target: T7, hMPV104 (hMPV B, UniProt Q6WB98 19-102)
# T7 construct: A459P
# Experimental: as §1, §3
# hMPV102 = target: T8, hMPV102 (hMPV B, UniProt Q6WB98 19-102)
# T8 construct: L141C-A161C
# Experimental: as §1, §3
# hMPV B F WT Control = hMPV B F WT Control (hMPV B, UniProt Q6WB98 19-102)
# Experimental: as §1, §3
# hMPV100 = target: T9, hMPV100 (hMPV B, UniProt Q6WB98 19-102)
# T9 construct: T411C-Q434C
# Experimental: as §1, §3
# hMPV107 = target: T10, hMPV107 (hMPV B, UniProt Q6WB98 19-102)
# T10 construct: S149T
# Experimental: as §1, §3
# hMPV103 = target: T11, hMPV103 (hMPV B, UniProt Q6WB98 19-102)
# T11 construct: E146C-T160C
# Experimental: as §1, §3
# hMPV108 = target: T12, hMPV108 (hMPV B, UniProt Q6WB98 19-102)
# T12 construct: T365I
# Experimental: as §1, §3
# hMPV106 = target: T13, hMPV106 (hMPV B, UniProt Q6WB98 19-102)
# T13 construct: T49I
# Experimental: as §1, §3
# hMPV105 = target: T14, hMPV105 (hMPV B, UniProt Q6WB98 19-102)
# T14 construct: G239A
# Experimental: as §1, §3
# hMPV119 = target: T15, hMPV119 (hMPV B, UniProt Q6WB98 19-102)
# T15 construct: T49I, T150C-R156C, A459P
# hMPV138 = target: T16, hMPV138 (hMPV B, UniProt Q6WB98 19-102)
# T16 construct: T49I, A140C-S149C, A459P
# hMPV144 = target: T17, hMPV144 (hMPV B, UniProt Q6WB98 19-102)
# T17 construct: T49I, L141C-A161C, S149T, A459P
# hMPV121 = target: T18, hMPV121 (hMPV B, UniProt Q6WB98 19-102)
# T18 construct: L141C-A161C, T411C-Q434C
# hMPV132 = target: T19, hMPV132 (hMPV B, UniProt Q6WB98 19-102)
# T19 construct: L141C-A161C, S149T, G239A, T411C-Q434C, A459P
# hMPV124 = target: T20, hMPV124 (hMPV B, UniProt Q6WB98 19-102)
# T20 construct: L141C-A161C, T411C-Q434C, A459P
# hMPV117 = target: T21, hMPV117 (hMPV B, UniProt Q6WB98 19-102)
# T21 construct: T150C-R156C, A459P
# hMPV134 = target: T22, hMPV134 (hMPV B, UniProt Q6WB98 19-102)
# T22 construct: T49I, L141C-A161C, S149T, G239A, T365I, T411C-Q434C, A459P
# hMPV140 = target: T23, hMPV140 (hMPV B, UniProt Q6WB98 19-102)
# T23 construct: T49I, L141C-A161C, T411C-Q434C, A459P
# hMPV125 = target: T24, hMPV125 (hMPV B, UniProt Q6WB98 19-102)
# T24 construct: L141C-A161C, G239A, T411C-Q434C
# hMPV129 = target: T25, hMPV129 (hMPV B, UniProt Q6WB98 19-102)
# T25 construct: T49I, A140C-S149C, G239A, T365I, T411C-Q434C, A459P
# hMPV133 = target: T26, hMPV133 (hMPV B, UniProt Q6WB98 19-102)
# T26 construct: T49I, L141C-A161C, S149T, G239A, T411C-Q434C, A459P
# hMPV128 = target: T27, hMPV128 (hMPV B, UniProt Q6WB98 19-102)
# T27 construct: T49I, A140C-S149C, G239A, T411C-Q434C, A459P
# hMPV136 = target: T28, hMPV136 (hMPV B, UniProt Q6WB98 19-102)
# T28 construct: A140C-S149C, A459P
# hMPV142 = target: T29, hMPV142 (hMPV B, UniProt Q6WB98 19-102)
# T29 construct: L141C-A161C, S149T, A459P
# hMPV139 = target: T30, hMPV139 (hMPV B, UniProt Q6WB98 19-102)
# T30 construct: T49I, L141C-A161C, T411C-Q434C
# hMPV127 = target: T31, hMPV127 (hMPV B, UniProt Q6WB98 19-102)
# T31 construct: A140C-S149C, G239A, T411C-Q434C, A459P
# hMPV118 = target: T32, hMPV118 (hMPV B, UniProt Q6WB98 19-102)
# T32 construct: T49I, T150C-R156C
binder,measurement,setting,value
B1,Response Shift,PIV1046,0.584 nm
same,Response Shift,PIV1044,0.162 nm
same,Response Shift,PIV1043,0.725 nm
same,Response Shift,PIV1042,0.192 nm
same,Response Shift,PIV1045,0.635 nm
B2,Response Shift,hMPV101,0.707 nm
same,Response Shift,hMPV104,0.85 nm
same,Response Shift,hMPV102,0.84 nm
same,Response Shift,hMPV B F WT Control,0.867 nm
same,Response Shift,hMPV100,0.863 nm
same,Response Shift,hMPV107,0.89 nm
same,Response Shift,hMPV103,0.814 nm
same,Response Shift,hMPV108,0.89 nm
same,Response Shift,hMPV106,0.912 nm
same,Response Shift,hMPV105,0.906 nm
same,Response Shift,hMPV119,0.864 nm
same,Response Shift,hMPV138,0.681 nm
same,Response Shift,hMPV144,0.712 nm
same,Response Shift,hMPV121,0.842 nm
same,Response Shift,hMPV132,0.704 nm
same,Response Shift,hMPV124,0.833 nm
same,Response Shift,hMPV117,0.723 nm
same,Response Shift,hMPV134,0.718 nm
same,Response Shift,hMPV140,0.731 nm
same,Response Shift,hMPV125,0.847 nm
same,Response Shift,hMPV129,0.687 nm
same,Response Shift,hMPV133,0.677 nm
same,Response Shift,hMPV128,0.777 nm
same,Response Shift,hMPV136,0.591 nm
same,Response Shift,hMPV142,0.731 nm
same,Response Shift,hMPV139,0.699 nm
same,Response Shift,hMPV127,0.719 nm
same,Response Shift,hMPV118,0.844 nm

# Source: patent US20240252614A1 (Pfizer, published 2024)
